Assay results from US20090263383A1 (Amgen, published 2009).
Where a chain is given by its changes, count along the chain named.

T1: huCD148 on human endothelial cells (planar migration assay) (human, UniProt Q12913 36-1337)
T1 sequence (looked up): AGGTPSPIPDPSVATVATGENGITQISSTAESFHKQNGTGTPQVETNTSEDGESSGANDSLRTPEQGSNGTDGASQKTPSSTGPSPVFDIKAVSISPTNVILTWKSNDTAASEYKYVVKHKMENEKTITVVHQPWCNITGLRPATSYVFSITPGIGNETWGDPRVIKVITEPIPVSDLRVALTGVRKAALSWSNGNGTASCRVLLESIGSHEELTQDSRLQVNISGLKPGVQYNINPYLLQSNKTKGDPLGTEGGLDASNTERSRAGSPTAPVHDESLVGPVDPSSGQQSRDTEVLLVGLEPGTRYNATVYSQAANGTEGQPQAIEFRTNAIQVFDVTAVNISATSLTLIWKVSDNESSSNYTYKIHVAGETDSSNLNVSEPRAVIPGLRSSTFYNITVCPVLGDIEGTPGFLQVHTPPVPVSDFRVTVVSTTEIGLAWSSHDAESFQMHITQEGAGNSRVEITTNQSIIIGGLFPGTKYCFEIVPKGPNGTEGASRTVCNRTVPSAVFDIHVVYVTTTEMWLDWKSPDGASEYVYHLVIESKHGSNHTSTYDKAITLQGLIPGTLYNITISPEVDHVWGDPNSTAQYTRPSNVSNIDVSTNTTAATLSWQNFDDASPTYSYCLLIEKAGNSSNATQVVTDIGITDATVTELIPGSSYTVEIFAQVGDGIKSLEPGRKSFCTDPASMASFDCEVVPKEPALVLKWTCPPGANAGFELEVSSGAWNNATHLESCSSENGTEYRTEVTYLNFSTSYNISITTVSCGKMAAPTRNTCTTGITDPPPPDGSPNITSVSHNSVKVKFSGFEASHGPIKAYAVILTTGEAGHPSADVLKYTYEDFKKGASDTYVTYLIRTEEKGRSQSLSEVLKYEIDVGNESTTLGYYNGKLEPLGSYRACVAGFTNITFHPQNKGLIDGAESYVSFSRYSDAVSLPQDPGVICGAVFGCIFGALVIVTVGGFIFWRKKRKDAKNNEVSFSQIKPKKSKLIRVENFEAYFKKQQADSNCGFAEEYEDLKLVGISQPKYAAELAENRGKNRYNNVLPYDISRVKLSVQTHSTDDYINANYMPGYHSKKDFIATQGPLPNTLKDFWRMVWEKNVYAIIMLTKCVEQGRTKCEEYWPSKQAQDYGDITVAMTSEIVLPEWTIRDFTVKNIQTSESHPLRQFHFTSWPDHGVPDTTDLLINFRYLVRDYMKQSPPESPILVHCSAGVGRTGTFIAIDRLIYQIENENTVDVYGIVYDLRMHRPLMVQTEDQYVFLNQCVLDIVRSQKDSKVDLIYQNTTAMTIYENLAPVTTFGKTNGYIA

B1: Antibody No. 7 (Ab-7) (antibody, V domains shown)
VH: EVQLVQSGAEVKKPGESLKISCKGYGYDFSRDWIAWVRQMPGKGLEWMGIIYPGDSDTRYSPSFEGQVTISADKSISTAYLQWRSLKASDTAMYYCARQRRLGWFDPWGQGTMVTVSS
VL: RSVLTQPPSVSAAPGQKVTISCSGSTSNIGNNYVSWYQQHPGKAPKLMIYDVSKRPSGVPDRFSGSKSGNSASLDISGLQSEDEADYYCAAWDDSLSEFLFGTGTKLTVL
B2: Antibody No. 6 (Ab-6) (antibody, V domains shown)
VH: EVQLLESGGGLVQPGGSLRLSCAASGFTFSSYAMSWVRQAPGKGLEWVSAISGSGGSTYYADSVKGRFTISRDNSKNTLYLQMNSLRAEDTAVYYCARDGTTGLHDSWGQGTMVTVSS
VL: QSVLTQPPSASGTPGQRVTISCSGSSSNVGSNFVYWYQQFPGTAPKLLIYRNNQRPSGVPDRFSGSKSGTSASLAISGLRSEDEADYYCAAWDDTLNGHYVFGGGTKLTVL
B3: Antibody No. 2 (Ab-2) (antibody, V domains shown)
VH: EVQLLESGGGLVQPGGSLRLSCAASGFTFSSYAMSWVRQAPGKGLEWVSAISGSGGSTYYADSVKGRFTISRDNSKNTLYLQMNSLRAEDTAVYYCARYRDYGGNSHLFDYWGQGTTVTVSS
VL: EIVMTQSPSSLPASVGDRVTITCRASQNIKTYLHWYQQKPGKAPNLLIYAASNLQIGVPSRFSGSGSGTDFTLTISSLQPEDFATYFCQQSYITPPTFGQGTRLEIK
B4: Antibody No. 4 (Ab-4) (antibody, V domains shown)
VH: QVQLVQSGAEVKKPGASVKVSCKASGYTFTSYYMHWVRQAPGQGLEWMGIINPSDGSTRYVEKFQGRVTMTRDTSTSTVYMELSSLRSEDTAVYFCARGMGPGPHYHFYMDVWGKGTMVTVSS
VL: SSELTQDPAVSVALGQTVRITCQGDSLRSYYTNWFQQKPGQAPLLVVYAKNKRPSGIPDRFSGSSSGNTASLTITGAQAEDEADYYCHSRDSGGNHVLFGGGTKLTVL
B5: Antibody No. 5 (Ab-5) (antibody, V domains shown)
VH: QVQLVQSGAEVKKPGASVKVSCKASGYTFTGQYIHWVRQAPGQGLEWMGWISAYNGYTDYAQKVQGRVTMTTDTSTSTAYMELRSLRSDDTAVYYCAREVWPVAAADTFSVFDIWGRGTLVTVSS
VL: B4 VL with T32A, N33S, F35Y, L44V, V47I, A49G, K52N, H88N, G93S, L98V
B6: Antibody No. 8 (Ab-8) (antibody, V domains shown)
VH: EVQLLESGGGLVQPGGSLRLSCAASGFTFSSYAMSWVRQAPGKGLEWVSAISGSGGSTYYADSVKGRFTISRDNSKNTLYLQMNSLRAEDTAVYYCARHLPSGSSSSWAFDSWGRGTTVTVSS
VL: SYVLTQPPSASGTPGQRVTISCSGSSSNIGSNYVYWYQQLPGTAPKLLIYRNNQRPSGVPDRFSGSKSGTSASLAISGLQSEDEADYYCEAWDDNVDGPVFGGGTKLTVL
B7: Antibody No. 3 (Ab-3) (antibody, V domains shown)
VH: GVQLVQSGAEVKKPGASVKVSCKASGYTFTSYYMHWVRQAPGQGLEWMGIINPSGGSTSYAQKFQGRVTMTRDTSTSTVYMELSSLRSEDTAVYYCARRVISGAFDIWGQGTMVTVSS
VL: DIQMTQSPSTLSASIGDRVTITCRASEGIYHWLAWYQQKPGKAPKLLIYKASSLASGAPSRFSGSGSGTDFTLTISSLQPDDFATYYCQQYSNYPLTFGGGTKLEIK
B8: Antibody No. 1 (Ab-1) (antibody, V domains shown)
VH: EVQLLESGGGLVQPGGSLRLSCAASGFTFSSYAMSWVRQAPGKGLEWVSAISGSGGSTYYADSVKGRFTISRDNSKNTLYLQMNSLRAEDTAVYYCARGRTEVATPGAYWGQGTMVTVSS
VL: QAVLTQPSSVSGAPGQRVTISCTGSSSNIGAGYDVHWYQQLPGTAPKLLIYGNSNRPSGVPDRFSGSKSGTSASLAVTGLQAEDEADYYCQSYDSSLSDVVFGGGTKLTVL

molecular target: T1, huCD148 on human endothelial cells …; experiment: cell-based or functional assay

Question: B1 was tested. Which “inhibiting human endothelial cell migration and/or inhibited angiogenesis in the corneal angiogenesis assay” value did it give?
Answer: The value was no less than 20%.

Question: Which “inhibiting human endothelial cell migration and/or inhibited angiogenesis in the corneal angiogenesis assay” value does the source give for B2 here?
Answer: The value was no less than 20%.

Question: With B3 as the binder, how does the “inhibiting human endothelial cell migration and/or inhibited angiogenesis in the corneal angiogenesis assay” value read?
Answer: The value was no less than 20%.

Question: How did the “inhibiting human endothelial cell migration and/or inhibited angiogenesis in the corneal angiogenesis assay” value turn out when B4 was run?
Answer: The value was no less than 20%.

Question: With B5 as the binder, how does the “inhibiting human endothelial cell migration and/or inhibited angiogenesis in the corneal angiogenesis assay” value read?
Answer: Its value is no less than 20%.

Question: Which “inhibiting human endothelial cell migration and/or inhibited angiogenesis in the corneal angiogenesis assay” value does the source give for B6 here?
Answer: Its value is no less than 20%.

Question: With B7 as the binder, how does the “inhibiting human endothelial cell migration and/or inhibited angiogenesis in the corneal angiogenesis assay” value read?
Answer: The value was no less than 20%.

Question: Which “inhibiting human endothelial cell migration and/or inhibited angiogenesis in the corneal angiogenesis assay” value does the source give for B8 here?
Answer: Its value is no less than 20%.
